Our source for the binding response, percent of max response in controls (with 200nM TPP1653) (% of max response in controls) values is PMC9486540.

The target of this assay is C5b6 (UniProt P13671). Description: BLI; as a1, but 100nM C7 pre-incubated with anti-C7 mAb TPP1653 (200nM or 2nM) before dipping the C5b6 sensors, then C8 and C9.

In turn, “human complement C7 (from UniProt P10643 23-843) (natural protein)” came in with a binding response, percent of max response in controls (with 200nM TPP1653) (% of max response in controls) of 60.
